In a protein production outcome set (Wang et al. 2014):

Assay: label from the status in PepcDB records

| Sequence | protein production |
| --- | --- |
| MNKSSATIMAAALMLASSCTEVKQEGQGYEPIIGKQEITIKDGRLTPEALWAMGRIGSLSISPDGKQIAYTVAYYSVPENKSHHVIYVMDADGKNNTLLTQTAWNESEPQWIKGGTKIAFLCNESGGSQIWEMNPDGTERRIISDFKGNIEGFSFSPDGKKILFISQIKYGQRTVDLYPDLPKASGIIVNDLMYKHWDEWVESIPHPFIADFDGNMMGAATDIMEGEPFEAPMKPFGGIEQLAWSNDSKQIAYTSRKKQGLAYAVSTDSDIYLYNIEKGTTLNLCKPNGKDSNGTDEMKGYDTNPKFSPNGKYIAWQSMERDGYESDRNRLCIYNLDDGQKTFVTESFESGVDDYCWNNDSQSLYFVGVWHGTSMVYSANLNGDIKKLTDGMYDYGSVAMAGDKIITKRHSISAADEIYTLTPADGQVAQLSHENDHIFKQLNLGKVEERWTKTTDGKQMLSWVIYPVNFDANKKYPTLLFCEGGPQSPVSQFWSYRWNFQIMAANDYIIIAPNRRGLPGFGMEWLEQISGDYGGQCMKDYLSAIDDISKEPYVDTNRLGCVGASFGGFSVYWLAGHHDKRFKAFIAHDGIFNMEQQYLETEEMWFANWDMGGAYWDKNNATAQRTFANSPHRFVDKWDTPILCIHGEKDYRILASQGMSAFNAAVLRGVPAELLLYPDENHWVLKPQNGVLWQRTFFSWLDKWLK | failed |
| MKFLVGYSNDSSGKDALKLGVALAEMTQGKLIVCHIVAKTWHNIALAKFDEDYDQFLCDEAQKALDDAKLAVPSHIEARYIARTALSISEGLKQTAKELSVDCMVISGARIAIKGQFFSGTVADELLNQLSLPVALAPKGFAKNQGFTSPLTRLSCAVSGSDQSCNLAISAGEWAEIFNVPLRFVTFAVRDRDITPTAAGFDAENMVINEWREQIEAEYAQATQHWESDVPISLEIGDGPTWKESIQSIDWQASELLIVGTTTSGIFKQVLVGKNAEKIIRYASVPRLVLPRSTD | failed |
| MEKREEAGEYHSKDFEWEFLKNIVENDPSLSHHLHHHHQNLSKYLPDSQPWQDFHSRHSSGKFFKERRYLLKEFPELVSCGENSKLLEIGCGNGSTVLPILRGSKNITVYACDCSSDALVRTKENIDRAISSVDNFHSFCCDFSTSEFPDWVACDRCRDKFMLNHSGGSESKHCIGGVDFVTLIFTLSAVPKERMPRAIKECFAVLKPGGLLLFRDYGLYDMTMLRFEPEKRVGFREYVRSDGTLSYFFCLDTARKLFTDAGFIEVELEYCCVKAVNRRKGKDMYRVWVHGKFQKPFSN | failed |
| MSQELKNKVQFLAKELNQLVNILYEESKKQTPLTLWLLCKNTFVYLYRTVKTVRGVAGVLLVLVPGSLMAYTTDAFRAIGELPWTSITVLLGGMSFFLFAYLRHLVLDEMSRPGSDLFHIQVYEKRKPDEYMSLIALAKERDYVESIAADIEQVTSTPSLPNLLELLKEKEQDIEEKDRVIEDLLEIVEDNEEHTLMFKEKYEILLDFVFQLKSKLNLLVHDQFSLDSIDFGSDYSLYKVGEEGLEFVDSYGVNKAEMEDFIPFTEKGNPYILAIERDYKDPLKVGDLISWKRTLQDGSQWVLSLHLNENSREKLNDVTESGKLNVTITQELLWICCELLNKFSPNPTKKGEE | failed |
| MKSIVIYESVHHGNTEKVAKAMVEELNAECIRAQDLNLEKLKDYDLIGFGSGIFYNKFHKNILKLVGNIGKVNGKKAVVFSTSGQGRESSNKSLRKQLEEKGFKVIGSFACKGFDTFGPLKLLGGIGKGRPDQKDIEEAKKFVLGLEKNLLEHHHHHH | failed |
| MHGPPESQEPCGTFGPDETTGATSTAASRGEARRLPRGGVLWALVDCNNFYASCERLFRPDLKGRPVVVLSNNDGCVIARSAEAKALGVPMGAPEFKVRDMLRAHDVAVFSSNYALYGDLSQRVMRTLATVVPRVEVYSIDEAFIPLPAALAADPVAVGRTLRQRVAQWVGIPVSVGVGPTRTLAKLANRLSKQDSAYGNVFDLTPETVDMDRVLASVDVGDVWGVGRRSAEMLRGRGILTARALRDADPLWVRQRMTVTGWRTQQELRGMPCLTDDDLPVPRRSIRSSRSFGQMVRTLEPLREAVATFTARAVAKARAEGLVASCIEVHIRTPRHTERPRYDETTTITLPCPTADTGLCIRHALTGLERIFREGYLYAKAGVTLFGLEPAAGRQGSLLDLLDGSHEHKARRERLMAALDAVNLRHGRGSIRHGAEGDPGAAWHMSQKYRSPRYTTAWEELPEVLCR | failed |
| MIGREGVTTLRFTVKQQFITHKHTLYGVAAILLWGSLMALTRRVAEEFSPIGGAALIYTVSTLFLLFAMGMPRLKAGSSRYILIGGALFVSYEICLALALGMASDRLQAIEMSVINYLWPALTVLIAVLLSQRAVSFWVYPSVGLAFAGVAWTIVAEQGISLADFSARIATNPAVYAMALTGAFIWAIYCNVTQRLARGQNAIVLFFAATAATLWLQYALSNEPALSFTGSSMGTLLLTGIVMGSGYALWNVAILRGNMLLLATLSYFTPVISTLFSSLILGVVLGLSFWQGVIMVTFGSLICWWVTRESSSSTGEVPETPPPLKEQS | failed |
| MEVSSFSTVPRYCNSRSFVPELSRFRGFKVHLWDQSLVPLHFSIRKRKNTPRYLISCSQKKDVTVVDGSCMDEIYDKLAERLVPTAAAMFSPNLKRLVGLAGPPGAGKSTVANEVVRRVNKLWPQKAASFDAEVNPPDVAIVLPMDGFHLYRSQLDAMEDPKEAHARRGAPWTFDPALLLNCLKKLKNEGSVYVPSFDHGVGDPVEDDIFVSLQHKVVIVEGNYILLEEGSWKDISDMFDEKWFIDVNLDTAMQRVENRHISTGKPPDVAKWRVDYNDRPNAELIIKSKTNADLLIRSMNI | failed |
| MKIRVDDITDQPKILSFQEPSEAFPSLAELQATGESEFLSPLMVELAVSKEYGHIRVKGSVAVKIRFVCSRCLVPFDADISSAFTMFYSEGSRIDSDEDEIELAEEDLVSVFYEGDEIDFAPEIAEQVIMELPLKPLCGEGCKGLCVTCGADLNEGECGCERTTFNVKFSALKNFKVEKLEHHHHHH | not failed |
| MAGGPPNTKAEMEMSLAEELNHGRQGENQEHLVIAEMMELGSRSRGASQKKQKLEQKAAGSASAKRVWNMTATRPKKMGSQLPKPRMLRESGHGDAHLQEYAGNFQGIRFHYDRNPGTDAVAQTSLEEFNVLEMEVMRRQLYAVNRRLRALEEQGATWRHRETLIIAVLVSASIANLWLWMNQ | failed |
| MVSYDRHINHVRLFVDGILDSSFLTEGITKTNDSPIYIGGAPYSVDSCDFPFLLDELKIYNLSIGTDQIQSEASASLSGIEPSFIYFGCFHCDMNTAILSCPNNYHLCNKMELYIGVYNVLRKFSLDVNNIILPYSSESNLGIGICCTDI | failed |
| MIELIDPISKQRLEESPEGLRNENGIVVYPLINGAYRVAASDNYTSNFGLEWNTFQKTQIDKFSGNTVSEERLFAQTNWQKNGLEGETILEVGSGAGRFSQIMLDHTKATLYSVDYSEAVEANYRNNGPHERFKLFQASIYELPFKQASFDRVICLGVLQHTPDFKASVKALVEMVKPGGELVIDFYPIRNVFTKVHGKYLLRPILKRVNHHRLMSLIRNNIDFLISIYTFNRRIGLGVFNRFVPICEIERTLPKGMTPEQLKEWIILDTFDMFSPEYDQPQRLSTVAKWVKEFGMADVDASWVTYHGKLEAPTVRGRKVLEHHHHHH | not failed |
| MFENFSPSTMLAIKKYAYWLWLLLALSMPFNYWMAQDSAHPAFWAFSLVIAVFGIGPLLDMLFGRDPANPDEETQTPQLLGQGYYVLLTLATVPVLIGTLVWAAGVFVAFQEWGWLGRLGWILSMGTVMGAVGIVVAHELIHKDSALEQAAGGILLAAVCYAGFKVEHVRGHHVHVSTPEDASSARFGQSVYQFLPHAYKYNFLNAWRLEAVRLRKKGLPVFGWQNELIWWYLLSLALLVGFGWAFGWLGMVFFLGQAFVAVTLLEIINYVEHYGLHRRKGEDGRYERTNHTHSWNSNFVFTNLVLFHLQRHSDHHAFAKRPYQVLRHYDDSPQMPSGYAGMVVLALIPPLWRAVMDPKVRAYYAGEEFQLTAEQSERPAAS | failed |
| MGNTTSDRVSGERHGAKAARSEGAGGHAPGKEHKIMVGSTDDPSVFSLPDSKLPGDKEFVSWQQDLEDSVKPTQQARPTVIRWSEGGKEVFISGSFNNWSTKIPLIKSHNDFVAILDLPEGEHQYKFFVDGQWVHDPSEPVVTSQLGTINNLIHVKKSDFEVFDALKLDSMESSETSCRDLSSSPPGPYGQEMYAFRSEERFKSPPILPPHLLQVILNKDTNISCDPALLPEPNHVMLNHLYALSIKDSVMVLSATHRYKKKYVTTLLYKPI | not failed |
| AHQYGVKSYIGIPRSYSHDRTDFMQSEQAEILYYDGKYEETVEFIRDFSKDNGLYDASPGSANSSIDKMMYATIAFEIYEALLTVPSYVIVPVGNGTTLAGIYHGFRRMYDEGVIDHLPRMVGVSTSGGNPIVDSWRHGYSRVVDLNPEEIRETSINEPLVSYRSFDGQDALSAIRETHGRAMYVSDEEMVYYSNLIYSAEGLNPLPASASAVAAIGHLKVKQDETVVSVITGRQI | failed |
| MPQDPRHPEHQYLDLVKHILENGARRMDRTGTGTLSVFGATMRFSLEDNTFPLLTTRRVFYRGVVEELLFFLRGETDSKVLEKKGVRIWEKNGAKQFLQSVGIDREEGDLGPIYGFQWRHFGARYETSASSYEGKGVDQIASAIAAIRANPASRRIVVSAWNPTDLGSMALPPCHVLFQFNVTDGKLSCAMYQRSGDMGLGVPFNIASYSLLTILVAHLTGLQPGEFVHFLGDAHVYLDHVDSLRQQIQRPPRAFPKLFVSPKGPRTEPEHFQYEDFELVGYDPHPAIKMNMSA | not failed |
| MGIENFTAKIVGLSIVSLLVVLMFLYKLIYIIPLIFIVLLVFQSEKKIFAFLSKNTKQIQPYSIEDGVFYNEKNASAVLIIDDIQMDYKDFTNSNLRSFISSFHKILDIAKDINIVLKRESLDKNVYIESLSQKIQALRIMIDSDPSNEKAKRKLELMETIISRIESGENPFRYEMYIIINSRDKNSALSTASMIRQGLEGLGIKTRLATLHEIQKLVRDFFHSKLNLNKIALPTQIPYLTPISVEKKPKSSIIIDGVLLGKDINNNGLVFWNITKSQNSHLLIVGPTGSGKTEFLIWLSTILNLIYGGTVILFDVKGDIKYRLSMYKVPFQLINPLFYRLGLLDEYDIPIRIKLLQIEKILLNSFRLSKFNSSILYNYLNRLIDISYLKYRIKWKDLEKYLSEIDDVQLKYYLSKLINILSSMEDSELPPLLHGVNENEINLIDLTLIKSEEIKRLIIYTLIQELYNKFSLEKIYDKPRVFLVLDEAWTILKNESEDYPIVADLIKRGRGYGISIIMATQNLEDLGDLANIYLDNIGVSVFMNNGDKKFWEEIRRFVNVDNDTLSNNLIFMNRGEALVRFLGDPRPVIIKLNTLAGSSF | failed |
| VFVGRCTGDMTEDELREFFSQYGDVMDVFIPKPFRAFAFVTFADDQIAQSLCGEDLIIKGISVHISNAEPKHNSN | not failed |
| TPHLVNLNEDPLMSECLLYYIKDGITRVGQADAERRQDIVLSGAHIKEEHCIFRSERSNSGEVIVTLEPCERSETYVNGKRVSQPVQLRSGNRIIMGKNHVFRFNHPEQARAEREKT | not failed |
| MANKVEHRLSEQQMKALTDLPLVFLITHDQSKSWPITHAISWVYAKDETTIRFAIEADSLLVKTLADHPVFTLIFFADQSTYSLTCTDVAAWETTARLPLKVALYEGQIKEVRDILFYGAAVSDRPRVYKTYDEAAAMQLDQQIQDILKG | not failed |
| MKDPNSQYQIDYVLLFILFAIGIVSCCAIASAQASLPPFLQNVNFVLKQIQWYFIGFIAIGVIMIIDFDRYQKIAWYLYSFAMVLLIGLELQVPGAVTIKGATAWYRLPGIGNFQPSEIMKLFLIIVIGRIIANHNEKYFSQTIHDDFLLLGKIFATSLPPLLLIAKEPDLGNTMVISAMLAAMILVSGIRWRFIFGLVSGTFVAGSTLIYIFFTHTDFFKAHILKEYQLNRFYGWLAPYKYDAQGYQLRQAFLATGSGEMQGKGWENGQVYFPEPHTDFIFTNVAEQFGFLGASVIISLFFLLIFRMIHIALESNDPFGSYICAGTIGMFTFQVFQNIGMTIGLLPITGITLPLMSYGGSSLLTYMIAIGFILNVRSRTKIFMFK | failed |
